Consider six molecules from patent US20220204627A1 (WILLIAM ROBERT ARATHOON LIVING TRUST DATED AUGUST 29 2016, published 2022).

Broadly, the EC50 is the concentration giving half of the maximal effect. What is called Kd is the constant that tells how readily two partners part at equilibrium.

Assay [1] deals with T1, human CD47-Fc fusion protein (R&D systems) (human, UniProt Q08722 19-141).
T1 construct: Bought (R&D systems); also called Fc-tagged CD47; not shown: Fc part of the bought fusion protein
In words: ELISA, binding to CD47. Also noted: Bmax: unit not given here. A general note: An ELISA detects its analyte on a solid surface through an enzyme-linked reagent.

In assay [2] the target is T2, human P Glycoprotein (Pgp) / Multidrug resistance protein 1 (MDR1), gene ABCB1, on cells (human, UniProt P08183 1-1280). In words: cell-based or functional assay.
Assay [3] has as its target T2, human P Glycoprotein (Pgp) / Multidrug …. In words: FACS on 293T-B1OX cells (overexpressing MDR1).
Assay [4] has the same target. The assay is described as follows: flow cytometry on 293T cells stably expressing human ABCB1 (293T_ABCB1_OX).
Assay [5] deals with T1, human CD47-Fc fusion protein (R&D …). The assay is described as follows: ELISA, binding to CD47; 15D3 HC with its own 15D3 LC (un-swapped control); ELISA.
The target is the same in assay [6]. In words: ELISA, plate coated with human CD47-Fc.
Assay [7] has the same target. In words: ELISA, plate coated with human CD47-Fc. On the set-up: Bmax: unit not given here.
The target of assay [8] is T3, human CD47 on cells (human, UniProt Q08722 19-323).
T3 construct: also called KT14 (target name); leukocyte surface antigen CD47
The assay is described as follows: flow cytometry on human red blood cells (h408 RBC), Alexa Fluor 647 channel.

Assay [9] addresses T4, cynomolgus CD47 on erythrocytes (cynomolgus, UniProt A0A5F8AK49 19-323 (rhesus entry)).
T4 construct: whole, on cells; also called cynomolgus RBCs
The assay is described as follows: flow cytometry on cynomolgus red blood cells (cy807 RBC), Alexa Fluor 647 channel. Background: In flow cytometry, cells or beads pass a laser one at a time.

Assay [10] concerns the target T1, human CD47-Fc fusion protein (R&D …). In words: ELISA, binding to CD47.
Assay [11] concerns the target T5, EGFR on 293T cells overexpressing EGFR (UniProt P00533 25-1210, limits assumed).
T5 construct: whole, on cells
The assay is described as follows: FACS on 293T-EGFR OX cells.

The target in assay [12] is T5, EGFR on 293T cells overexpressing EGFR. In words: FACS on 293T cells overexpressing EGFR.
Assay [13] concerns the target T2, human P Glycoprotein (Pgp) / Multidrug …. The assay is described as follows: flow cytometry on 293T cells stably expressing human ABCB1 (293T_ABCB1_OX; the cells also carry CD47).
Assay [14] has as its target T3, human CD47 on cells. In words: flow cytometry on 293T_ABCB1_OX cells (anti-CD47 antibody; CD47 is endogenous on 293T cells); 293T_ABCB1_OX cells, endogenous CD47.

B1: anti-MDR1 antibody 15D3 (recombinant, human IgG1/Kappa) (antibody, V domains shown)
VH: EVKVVESGGVLVRPGGSLKLSCAASGFTFSRYTMSWVRQTPEKRLEWVATISSGGGNTYYPDSVKGRFTVSRDNAMSSLYLQMSSLRSEDTALYYCARYGAGDAWFAYWGQGTLVTVSA
VL: DVLMTQTPLSLPVSLGDQASISCRSSQSIVHSTGNTYLEWYLQKPGQSPKLLIYKVSNRFSGVPDRFSGSGSGTDFTLKISRLEAEDLGVYYCFQGSHFPRTFGGGTRLEIK
notes: also called 15D3/15D3
On to B1, for which the Bmax in assay [1] came out at 3.2. Also, the “Vincristine IC50 (nM) on N6/ADR cells with antibody at 50 ug/mL” value in assay [2] is 0.466 nM. The concentration for a half-maximal effect (EC50) turned out to be 25.1 nM in assay [3] and 14.6 nM in assay [4]. Moreover, the Kd in assay [5] was 10.9 nM.

B2: 5F9/MRK16 (anti-CD47 antibody with two 5F9 heavy chains and two MRK16 light chains) (antibody, human IgG1, V domains shown)
VH: QVQLVQSGAEVKKPGASVKVSCKASGYTFTNYNMHWVRQAPGQRLEWMGTIYPGNDDTSYNQKFKDRVTITADTSASTAYMELSSLRSEDTAVYYCARGGYRAMDYWGQGTLVTVSS
VL: DVLMTQTPVSLSVSLGDQASISCRSSQSIVHSTGNTYLEWYLQKPGQSPKLLIYKISNRFSGVPDRFSGSGSGTDFTLKISRVEAEDLGVYYCFQASHFPRTFGGGTKLEIK
notes: Human IgG1 / kappa constant regions; also called KT14/MRK16 monoclonal; KT14_MRK16
With B2, the “fold decrease in affinity against the un-swapped 5F9 control” value in assay [6] worked out at 100 fold. In assay [7], this molecule returned a Bmax of 2.94 and a Kd of 0.17 nM. In addition, in the assay with human CD47 on cells [8], the “R4 (percent of red blood cells in the positive gate R4)” value came to 0.708%. Further, in assay [9], the “R4 (percent of red blood cells in the positive gate R4)” value stood at 0.717% and the binding result is on record as “no binding”.

B3: 15D3/MRK16 (anti-MDR1 antibody with two 15D3 heavy chains and two MRK16 light chains) (antibody, human IgG1, V domains shown)
VH: EVKVVESGGVLVRPGGSLKLSCAASGFTFSRYTMSWVRQTPEKRLEWVATISSGGGNTYYPDSVKGRFTVSRDNAMSSLYLQMSSLRSEDTALYYCARYGAGDAWFAYWGQGTLVTVSA
VL: DVLMTQTPVSLSVSLGDQASISCRSSQSIVHSTGNTYLEWYLQKPGQSPKLLIYKISNRFSGVPDRFSGSGSGTDFTLKISRVEAEDLGVYYCFQASHFPRTFGGGTKLEIK
notes: Human IgG1 / kappa constant regions; also called 15D3/MRK16 monoclonal; a15D3:MRK16 antibody
Turning to B3, the “fold decrease in affinity against the un-swapped 15D3 control” value in assay [10] is roughly 20 fold. Further, in [1], the Bmax was determined as 3.94 and the dissociation constant (Kd) was 229 nM.

B4: anti-EGFR antibody necitumumab (antibody, human IgG1, kappa, V domains shown)
VH: QVQLQESGPGLVKPSQTLSLICTVSGGSISSGDYYWSWIRQPPGKGLEWIGYIYYSGSTDYNPSLKSRVTMSVDTSKNQFSLKVNSVTAADTAVYYCARVSIFGVGTFDYWGQGTLVTVSS
VL: EIVMTQSPATLSLSPGERATLSCRASQSVSSYLAWYQQKPGQAPRLLIYDASNRATGIPARFSGSGSGTDFTLTISSLEPEDFAVYYCHQYGSTPLTFGGGTKAEIKR
notes: Heavy chain copied as printed in T0103; also called KT3-2
With B4, the concentration giving a half-maximal response (EC50) stood at 0.13 nM in [11] and 0.044 nM in assay [12].

B5: Ab5 (15D3 HC-Hz1 DD hIgG1 / KT14 IgG1 KK / MRK16 VL-Hz1) (bispecific antibody, V domains shown)
VH 1: EVQLVESGGVVVQPGGSLRLSCAASGFTFSRYTMSWVRQAPGKGLEWVATISSGGGQTYYPDSVKGRFTVSRDNSKNSLYLQMNSLRTEDTALYYCARYGAGDAWFAYWGQGTLVTVSS
VH 2: QVQLVQSGAEVKKPGASVKVSCKASGYTFTNYNMHWVRQAPGQRLEWMGTIYPGNDDTSYNQKFKDRVTITADTSASTAYMELSSLRSEDTAVYYCARGGYRAMDYWGQGTLVTVSS
VL: DIVMTQTPLSSPVTLGQPASISCRSSQSIVHSTGQTYLEWYQQRPGQPPRLLIYKISNRFSGVPDRFSGSGAGTDFTLKISRVEAEDVGVYYCFQASHFPRTFGQGTKLEIK
notes: Human IgG1 heavy chains with DD on the 15D3 arm and KK on the KT14 (5F9) arm; kappa light chain
Turning to B5, in [2], the “Vincristine IC50 (nM) on N6/ADR cells with antibody at 50 ug/mL” value was 0.0589 nM. In assay [13], this molecule gave a concentration for a half-maximal effect (EC50) of 137 nM.

B6: anti-CD47 antibody 5F9 (antibody, human IgG1, V domains shown)
VH: QVQLVQSGAEVKKPGASVKVSCKASGYTFTNYNMHWVRQAPGQRLEWMGTIYPGNDDTSYNQKFKDRVTITADTSASTAYMELSSLRSEDTAVYYCARGGYRAMDYWGQGTLVTVSS
VL: DIVMTQSPLSLPVTPGEPASISCRSSQSIVYSNGNTYLGWYLQKPGQSPQLLIYKVSNRFSGVPDRFSGSGSGTDFTLKISRVEADVGVYYCFQGSHVPYTFGQGTKLEIK
notes: Variable regions cloned on human IgG1 / human kappa constant regions; also called 5F9/5F9; KT14
Consider B6, for which, in assay [7], the Bmax turned out to be 2.78 and the Kd was 0.00197 nM. In addition, in the assay with human CD47 on cells [8], the “R4 (percent of red blood cells in the positive gate R4)” value stood at 99.9%. Further, the “R4 (percent of red blood cells in the positive gate R4)” value in assay [9] was 99.8%. This molecule showed a concentration for a half-maximal effect (EC50) with human CD47 on cells [14] of 0.3 nM.
